Reference: the nanobody polyreactivity screen of Harvey et al. (2022)

Assay: yeast display, Sf9 membrane polyspecificity reagent, FACS + sequencing; frameworks hold sequencing errors
Summary of the method: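 Genes from sorted yeast were amplified by colony PCR, read by MiSeq 2 × 250 sequencing and filtered on CDR length. These cells carried a synthetic nanobody library in Saccharomyces cerevisiae BJ5465 and were sorted by FACS into low and high (top ~1%) gates on anti-HA and streptavidin fluorescence. Polyreactivity is labelled according to the gate of origin.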
For “QVQLVESGGGLVQAGGSLRLSCAASGSIFGTNAMGWYRPAPGKERELVAAINWSGGTTYYADSVKGRFTISRDNAKNTVYLQMNSLKPEDTAVYYCNADIEKSYNYWGQGTQVTVSS”, the “polyreactivity (PSR sort gate)” value was “low polyreactivity”.
With “QVQLVESGGGLVQAGGSLRLSCAASGSIFGTNAMGWYRQAPGKERELVAAISLSTGSTYYADSVKGRFTISRDNAKNNVYLQMNSLKPEYTAVYYCAAYYVTPIYYYWGQGSQVTVSS” the “polyreactivity (PSR sort gate)” value was “low polyreactivity”.
For “QVQLVESGGGLVQAGGSLRLSCAASGSIFGTNAMGWYRQAPGKERELVAVISDGGSTYYADSVKGRFTISRDNAKNTVYLQMNSLKPEDTAVYYCNTPLESPFYSRFGTTESDHWGQGTQVTVSS”, the “polyreactivity (PSR sort gate)” value was “low polyreactivity”.
With “QVQLVESGGGLVQAGGSLRLSCAASGSIFGTNTMGWYRQAPGKEREFVAVITGSTTSTYYADSVKWRFTISRDNANNTVYLQMNSLIPEDTAVYYCADEPGSRSYGGDYWGQGTQVTVSS” the “polyreactivity (PSR sort gate)” value was “high polyreactivity”.
For “QVQLVESGGGLVQAGGSLRLSCAASGSIFGTNTMGWYRQAPGKERELVAAIRLSDSSTYYADSVKGRFTISRDNAKNSFYLQMNSLKPVDTAVYYCAVDYRAYHYYRYDYWGQGTQVTVSS”, the “polyreactivity (PSR sort gate)” value was “low polyreactivity”.
In the case of “QVQLVESGGGLVQAGGSLRLSCAASGSIFGTYAMGWYRQAPGKEREFVAAISWSDGSTYYADSVKGRFTISRDNAKNTVYLQMNSLNPEDTAVYYCAVRRVGSIYIDRYIYVVADYDYWGQGTQVTVSS”, the “polyreactivity (PSR sort gate)” value is reported as “low polyreactivity”.
With “QVQLVESGGGLVQAGGSLRLSCAASGSIFGTYAMGWYRQAPGKERELVAAITGNGGRTYYADSVKGRFTISRDNAKNTVYLQMNSLKPEDTAVYYCAKATSRRGFYYWGQGTQVTVSS” the “polyreactivity (PSR sort gate)” value was “high polyreactivity”.
With “QVQLVESGGGLVQAGGSLRLSCAASGSIFGTYAMGWYRQAPGNERELVAAITGNGGRTYYADSVKGRFTISRDNAKNTVYLQMNSLKPEDTAVYYCAKATSRRGFYYWGQGTQVTVSS” the “polyreactivity (PSR sort gate)” value was “high polyreactivity”.
With “QVQLVESGGGLVQAGGSLRLSCAASGSIFGVNAMGLYRQAPGKERELVASISLSDDRTYYADSVKGRFTISRDNAKNTVYLQMNSLKPEDTAVYYCARRILWYWDVYPSLAEYDYWGQGTQVTVSS” the “polyreactivity (PSR sort gate)” value was “low polyreactivity”.
With “QVQLVESGGGLVQAGGSLRLSCAASGSIFGVNAMGWYRQAPGKERELVAAISSGGSTNYADSVKGRFTISRDNAKNTVYLQMNSLKPEDTAVYYCAADTNTRSNYDYWGQGTQVTVSS” the “polyreactivity (PSR sort gate)” value was “low polyreactivity”.
With “QVQLVESGGGLVQAGGSLRLSCAASGSIFGVNTMGWYRQAPGKERELVAAISSGGNTHYADSVKGRFTISRDNAKNTVYLQMNSLKPEDTAVYYCAAAYVGIYYVSRRRWERYYYWGQGTQVTVSS” the “polyreactivity (PSR sort gate)” value was “high polyreactivity”.
With “QVQLVESGGGLVQAGGSLRLSCAASGSIFGVYAMGWYRQAPGKEREFVAAITKRGGSTYYADSVKGRFTISRDNAKNTVYLQMNSLKPEDTAVYYCAARYGRYISSRYGSWGQGTQVTVSS” the “polyreactivity (PSR sort gate)” value was “high polyreactivity”.
For “QVQLVESGGGLVQAGGSLRLSCAASGSIFGVYAMGWYRQAPGKERELVAAINSGGTTYADSVKGRFTISRDNAKNTVYLQMNSLKPEDTAVYYCNADRWGPEDPYRVRDRFDYWGQGTQVTVSS”, the “polyreactivity (PSR sort gate)” value was “low polyreactivity”.
In the case of “QVQLVESGGGLVQAGGSLRLSCAASGSIFGVYAMGWYRQAPGTERELVAAISSRGSSTYYADSVKGRFTISRDNAKKTVYLQMLSLKPEDTAVYYCAARPGIRSYPPGYGYWGQGTQGTVSS”, the “polyreactivity (PSR sort gate)” value is reported as “high polyreactivity”.
For “QVQLVESGGGLVQAGGSLRLSCAASGSIFGVYTMGWYRQAPGKERELVAAISGSGGSTYYADSVKGRFTISRDNAKNTVYLQMNSLKPEDTAVYYCATRFPKIPPYDSWGQGTQVTVSS”, the “polyreactivity (PSR sort gate)” value was “low polyreactivity”.
For “QVQLVESGGGLVQAGGSLRLSCAASGSIFGVYVMGWYRQAPGKERELVAAITRGASTNYADSVKGRFTISRDNAKNTVYLQMNSLKPEDTAVYYCAADGWYSAVGVWLEYDYWGQGTQVTVSS”, the “polyreactivity (PSR sort gate)” value was “low polyreactivity”.
With “QVQLVESGGGLVQAGGSLRLSCAASGSIFGWNAMGWYRQAPGKERELVAAISSGGSTYYADSVKGRFTISRDNAKNTVYLQMNSMKPEDPAVYYCNAYFQYYDYWGQGTQVTVSS” the “polyreactivity (PSR sort gate)” value was “low polyreactivity”.
With “QVQLVESGGGLVQAGGSLRLSCAASGSIFGWYAMGWYRQAPGKERELVAAIDSATSTDYADSVKGRFTISRDNAKNTVYLQMNSLKPEDTAFYYCAVYSCWIDAEYDYWGQGTQVTGSS” the “polyreactivity (PSR sort gate)” value was “low polyreactivity”.
In the case of “QVQLVESGGGLVQAGGSLRLSCAASGSIFGWYVMGWYIQAPGKERELVAAISSVGSTYYADSVKGRFTISRDNAKNTVYLQMKSLKPEDTAVYYCAKLRYPYLFWDDSEYWGQGTQVTVSS”, the “polyreactivity (PSR sort gate)” value is reported as “low polyreactivity”.
For “QVQLVESGGGLVQAGGSLRLSCAASGSIFGWYVMGWYRQAPGKERELVAAISSVGSTYYADSVKGRFTISRDNAKNTVYLQMNSLKPEDTAVYYCAKLRYPYLFWDDSEYWGQGTQVTVSS”, the “polyreactivity (PSR sort gate)” value was “low polyreactivity”.
For “QVQLVESGGGLVQAGGSLRLSCAASGSIFGYNAMGWSRQAPGKERELVAGITSGTSTYYADSVKGRFTISRDNAKYTVYLQMNSLKPEDTEVYYCARTSYRFYRKRYYWGQGTQVTVSS”, the “polyreactivity (PSR sort gate)” value was “high polyreactivity”.
For “QVQLVESGGGLVQAGGSLRLSCAASGSIFGYNAMGWYRQAPGIERELVAAISSGGNTYYADSVKGRFTISRDNAKNTVYLQMNSLKPEDTAVYYCAVDYYYGFDWGQGTQVTVSS”, the “polyreactivity (PSR sort gate)” value was “low polyreactivity”.
For “QVQLVESGGGLVQAGGSLRLSCAASGSIFGYNAMGWYRQAPGKDREFVAAIRWSSGSTYYADSVKGRFTISRDNAKNTVYLQMNSLKPEDTAVYYCATRQTYLYWGQGTQVTVSS”, the “polyreactivity (PSR sort gate)” value was “high polyreactivity”.
In the case of “QVQLVESGGGLVQAGGSLRLSCAASGSIFGYNAMVWYRQAPGKESELVAAIRYSGGRTYYADSVKGRFTISRDNAKNSVYLQMNSLKPEDTAVYYCAAPIKFYRYGYTRYDYWGQCTQVTVSS”, the “polyreactivity (PSR sort gate)” value is reported as “high polyreactivity”.
In the case of “QVQLVESGGGLVQAGGSLRLSCAASGSIFGYNDMGWYRQAPGKERELVAAIDWSDDITYYADSVKGRFTISRDNAKNTVYLQMNSLKPEDTAVYYCATKIRLALYFGYVSEYDYWGQGTQVTVSS”, the “polyreactivity (PSR sort gate)” value is reported as “high polyreactivity”.
For “QVQLVESGGGLVQAGGSLRLSCAASGSIFGYNPMGWYIQAPGKERELVAAISRSGGRTYYADSVKGRFTISRDNAKNTVYLQMNSLKPEDTAVYDCAAPVWRYYRGKTFDYWGQGTQVTVSS”, the “polyreactivity (PSR sort gate)” value was “high polyreactivity”.
In the case of “QVQLVESGGGLVQAGGSLRLSCAASGSIFGYNTMGRYRQAPGKERELVAAISYRGGSTYADSVKGRFTISRDNAKNTVYLQMNSLKPEDTAVYYCAKRSIVGYRYSGYDYWGQGTQVTVSS”, the “polyreactivity (PSR sort gate)” value is reported as “high polyreactivity”.
For “QVQLVESGGGLVQAGGSLRLSCAASGSIFGYNTMGWSRQAPGKERELVASISYSGGSTYYADSVKGRFTISRDNAKNTVYLQMNSLKPEDTAVYYCNTGSRYRPNRRYGYWGQGTQVTVSS”, the “polyreactivity (PSR sort gate)” value was “high polyreactivity”.
In the case of “QVQLVESGGGLVQAGGSLRLSCAASGSIFGYNVMGWYRQAPGKERELVAGITSGGSTNYADSVKGRFTISRDNAKNTVYVQMNSLKPEDTAVYYCNAEGVFGDGRSGFYWYDYWGQGTQVTVSS”, the “polyreactivity (PSR sort gate)” value is reported as “low polyreactivity”.
With “QVQLVESGGGLVQAGGSLRLSCAASGSIFGYYALGWYRQAPGKERELVAAITSVGSTYYADSVKGRFTISRDNAKKTVSLQMNSLKPEDTAVYYCATRFWFRSLRSSYYYWGQGTQVTVSS” the “polyreactivity (PSR sort gate)” value was “high polyreactivity”.
